Key:
human 5T4 antigen [1] = molecular target: T1, human 5T4 antigen (Homo sapiens, UniProt Q13641); assay: BIACORE analysis of antibody binding to human 5T4 antigen immobilized on a CM5 chip; conditions: chimeric and humanized antibodies, Table 12
T1 sequence (Q13641 32-420): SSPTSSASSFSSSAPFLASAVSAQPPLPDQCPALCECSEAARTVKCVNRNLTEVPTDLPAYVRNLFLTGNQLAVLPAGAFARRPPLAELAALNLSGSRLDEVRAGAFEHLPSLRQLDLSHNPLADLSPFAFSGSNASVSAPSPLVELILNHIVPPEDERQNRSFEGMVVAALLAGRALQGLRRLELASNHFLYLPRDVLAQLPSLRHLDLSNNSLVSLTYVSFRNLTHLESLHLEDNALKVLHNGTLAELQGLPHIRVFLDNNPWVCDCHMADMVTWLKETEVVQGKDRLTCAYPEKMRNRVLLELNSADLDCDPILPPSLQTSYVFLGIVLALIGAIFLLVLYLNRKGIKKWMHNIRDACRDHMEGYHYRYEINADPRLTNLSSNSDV
Description: To assess the binding specificity and affinity of the A1, A2, and A3 antibodies, BIACORE® analysis was performed using human 5T4 antigen immobilized on a CM5 chip. BIACORE® technology utilizes changes in the refractive index at the surface layer upon binding of the antibody to the 5T4 antigen immobilized on the layer. Binding is detected by surface plasmon resonance (SPR) of laser light refracting from the surface. Analysis of the signal kinetics on rate and off rate allows discrimination between non-specific and specific interactions. The H8 anti-5T4 antibody was used as a control. H8 is a hybridoma-generated monoclonal mouse IgG1 antibody described in PCT International Publication No. WO 98/55607 and in Forsberg et al. (1997) J. Biol. Chem. 272(19):[…].
To assess the binding specificity and affinity of the chimeric and humanized H8, A1, A2, and A3 antibodies, BIACORE® analysis was performed using human 5T4 antigen immobilized on a CM5 chip. See Example 2.

human 5T4 antigen [2] = molecular target: T1, human 5T4 antigen; assay: BIACORE competition assay: second antibody after saturation with first antibody; type: binding
Description: Epitope mapping of the H8, A1, A2, and A3 antibodies was also performed using BIACORE® using a CM5 chip with bound human 5T4 antigen. The chip was saturated with H8, A1, A2, or A3 antibody, and a first response was measured. The chip was then saturated with a second antibody from among the H8, A1, A2, and A3 antibodies, and a second response was measured. For multiple experiments, the chip was regenerated by dissociation of the bound antibodies in 10 mM glycine, pH 1.5, followed by a buffer wash. The percentages shown are the response units measured upon binding by a second antibody directly to the CM5 chip divided by the response units measured upon binding of the second antibody to a CM5 chip saturated with a first antibody.
The epitopes bound by the H8 and A3 antibodies are sterically close to each other such that the rate of association with antigen is decreased when binding of H8 is assayed in the presence of A3, and vice versa. Similar results were obtained using the chimeric and humanized H8, A1, A2, and A3 antibodies, which were prepared as described in Example 7 herein below.

[3] = system: black-tailed marmoset 5T4 ectodomain/Fc fusion protein; assay: Cross-species reactivity ELISA, 5T4 ectodomain/Fc fusion proteins; type: binding; design: key: +: binding; −: no binding; +/−: partial binding
Description: (§1) The cross-species reactivity of anti-5T4 antibodies disclosed herein was assayed to determine relevant species for in vivo efficacy studies and toxicology analysis. Correlation of binding activity and relatedness of the different 5T4 ectodomains was also used to further describe the epitope bound by each antibody. Binding assays were performed using 5T4 ectodomains from various species fused to human IgG1 Fc. To assay binding of anti-5T4 antibodies, 5T4 ectodomain/Fc fusion proteins were transiently transfected into COS-1 cells, and ELISA assays were performed. Non-relevant human IgG4 and IgG1 antibodies were used as controls.

[4] = molecular target: T2, mouse 5T4 ectodomain/Fc fusion protein (Mus musculus, UniProt Q9Z0L0); assay: as above; type: binding; design: key: +: binding; −: no binding; +/−: partial binding
T2 construct: prepared using mouse 5T4 (amino acids 1-361); human IgG1 Fc; made in house; host or cells: COS-1 cells (transient transfection)
T2 sequence (Q9Z0L0 32-361): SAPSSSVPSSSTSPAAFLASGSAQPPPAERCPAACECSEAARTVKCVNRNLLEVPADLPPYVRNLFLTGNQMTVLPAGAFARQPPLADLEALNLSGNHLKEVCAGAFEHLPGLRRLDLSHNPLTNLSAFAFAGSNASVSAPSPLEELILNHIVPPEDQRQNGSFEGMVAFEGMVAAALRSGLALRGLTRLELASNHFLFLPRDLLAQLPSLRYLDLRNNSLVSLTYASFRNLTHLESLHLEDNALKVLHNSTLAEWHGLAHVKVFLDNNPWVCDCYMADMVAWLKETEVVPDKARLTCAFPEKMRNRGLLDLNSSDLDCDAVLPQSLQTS
Description: as §1

[5] = molecular target: T3, rat 5T4 ectodomain/Fc fusion protein (Rattus norvegicus, UniProt Q5PQV5); assay: as above; type: binding; design: key: +: binding; −: no binding; +/−: partial binding
T3 construct: rat 5T4 (amino acids 1-361); human IgG1 Fc; made in house; host or cells: COS-1 cells (transient transfection)
T3 sequence (Q5PQV5 32-361): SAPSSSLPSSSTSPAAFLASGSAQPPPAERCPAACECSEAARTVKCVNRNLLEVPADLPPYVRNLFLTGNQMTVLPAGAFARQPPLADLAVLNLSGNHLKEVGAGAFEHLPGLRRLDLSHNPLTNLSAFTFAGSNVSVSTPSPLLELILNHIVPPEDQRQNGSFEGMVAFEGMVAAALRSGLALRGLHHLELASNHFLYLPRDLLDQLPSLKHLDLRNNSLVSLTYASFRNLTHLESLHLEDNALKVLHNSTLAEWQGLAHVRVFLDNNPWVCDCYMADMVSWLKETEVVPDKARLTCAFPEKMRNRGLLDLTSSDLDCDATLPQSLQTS
Description: as §1

black-tailed marmoset 5T4 ectodomain/Fc fusion protein, sequence (as listed by the source): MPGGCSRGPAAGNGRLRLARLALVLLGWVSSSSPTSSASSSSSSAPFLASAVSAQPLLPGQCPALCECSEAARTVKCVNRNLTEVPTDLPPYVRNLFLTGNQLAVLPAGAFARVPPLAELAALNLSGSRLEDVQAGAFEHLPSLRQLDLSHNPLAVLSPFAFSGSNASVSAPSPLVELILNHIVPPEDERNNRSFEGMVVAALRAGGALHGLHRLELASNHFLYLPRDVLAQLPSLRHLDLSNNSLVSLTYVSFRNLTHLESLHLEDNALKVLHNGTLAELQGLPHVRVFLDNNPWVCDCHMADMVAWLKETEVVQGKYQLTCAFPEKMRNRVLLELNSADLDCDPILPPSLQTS

KA (1/M) (human 5T4 antigen [1]): ˜5.4 × 10^9 1/M
ka (1/Ms) (human 5T4 antigen [1]): ˜5.4 × 10^4 1/Ms
kd (1/s) (human 5T4 antigen [1]): ˜1.0 × 10^−5 1/s
Percentage of Second Antibody Bound Following Saturation With First Antibody (human 5T4 antigen [2]; first antibody chimeric A1, 19 seconds after injection of second antibody): 82.1%
Percentage of Second Antibody Bound Following Saturation With First Antibody (human 5T4 antigen [2]; first antibody chimeric A1, 37.5 seconds after injection of second antibody): 82.0%
Percentage of Second Antibody Bound Following Saturation With First Antibody (human 5T4 antigen [2]; first antibody chimeric A1, 75 seconds after injection of second antibody): 84.5%
Percentage of Second Antibody Bound Following Saturation With First Antibody (human 5T4 antigen [2]; first antibody chimeric A1, 150 seconds after injection of second antibody): 87.8%
Percentage of Second Antibody Bound Following Saturation With First Antibody (human 5T4 antigen [2]; first antibody chimeric A1, 300 seconds after injection of second antibody): 90.8%
Percentage of Second Antibody Bound Following Saturation With First Antibody (human 5T4 antigen [2]; first antibody chimeric A1, 600 seconds after injection of second antibody): 92.8%
Percentage of Second Antibody Bound Following Saturation With First Antibody (human 5T4 antigen [2]; first antibody chimeric A2, 19 seconds after injection of second antibody): 92.2%
Percentage of Second Antibody Bound Following Saturation With First Antibody (human 5T4 antigen [2]; first antibody chimeric A2, 37.5 seconds after injection of second antibody): 88.6%
Percentage of Second Antibody Bound Following Saturation With First Antibody (human 5T4 antigen [2]; first antibody chimeric A2, 75 seconds after injection of second antibody): 89.5%
Percentage of Second Antibody Bound Following Saturation With First Antibody (human 5T4 antigen [2]; first antibody chimeric A2, 150 seconds after injection of second antibody): 91.5%
Percentage of Second Antibody Bound Following Saturation With First Antibody (human 5T4 antigen [2]; first antibody chimeric A2, 300 seconds after injection of second antibody): 93.4%
Percentage of Second Antibody Bound Following Saturation With First Antibody (human 5T4 antigen [2]; first antibody chimeric A2, 600 seconds after injection of second antibody): 94.6%
cross-reactivity (binding class) [3]: −
cross-reactivity (binding class) [4]: −
cross-reactivity (binding class) [5]: −
B1: chimeric A3: chimeric A3 antibody: murine A3 variable regions, human IgG4 heavy chain and human kappa light chain constant regions (antibody, V domains shown)
VH: EVQLVESGGGLVQPKGSLKLSCAASGFTFNTYAMNWVRQAPGKGLEWVARIRSKSNNYATYYADSVKDRFTISRDDSQSMLYLQMNNLKTEDTAMYCCVRQWDYDVRAMNYWGQGTSVTVSS
VL: DIVMTQSHIFMSTSVGDRVSITCKASQDVDTAVAWYQQKPGQSPKLLIYWASTRLTGVPDRFTGSGSGTDFTLTISNVQSEDLADYFCQQYSSYPYTFGGGTKLEIK

From patent US20070231333A1, “ANTI-5T4 ANTIBODIES AND USES THEREOF” (Wyeth, priority 2006, published 2007)
